Test: flow cytometry of surface TCR, anti-CD3 epsilon UCHT1
Settings: glycan lost; control: JGN transfected with wild-type CD3 gamma

With CD3 gamma: N30Q the expression_or_secretion was “no change”.
With CD3 gamma: N70Q the expression_or_secretion was “no change”.

Reference: article PMC2120718
